125 sequences from the supplement of paper PMC9112550, “Optimization of the antimicrobial peptide Bac7 by deep mutational scanning” (BMC Biology, 2022) can be followed below.
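Further: peptides expressed intracellularly from a pBAD plasmid library in pooled LB shake-flask culture, induced with 0.3% L-arabinose, DNA abundance read by NGS, three biological replicates, DESeq2 with apeglm shrinkage.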

In the data set the test system is Escherichia coli TOP10. As to the kind of experiment: shrunken log2 fold change of peptide-encoding DNA abundance (4.5 h post-induction vs induction); higher = less antimicrobial activity (less host growth inhibition). As to conditions: time post-induction: 4.5 h; library: site-saturation at positions 5, 18, 19, 20.
As for RRIRYRPPRLPRPRPRPRWLPRP, the “shrunken log2 fold change” value is -0.109. For RRIRDRPPRLPRPRPRPMSRPRP, the “shrunken log2 fold change” value is -0.107. For RRIRKRPPRLPRPRPRPWINPRP the value was -0.0449; for RRIRNRPPRLPRPRPRPICTPRP, -0.122; for RRIRIRPPRLPRPRPRPFEHPRP, -0.321. In the case of RRIRWRPPRLPRPRPRPKHYPRP, the “shrunken log2 fold change” value is 0.473. Take RRIRMRPPRLPRPRPRPVKLPRP: the “shrunken log2 fold change” value was -0.0873.

For RRIRDRPPRLPRPRPRPCYLPRP, the “shrunken log2 fold change” value is -0.345. For RRIRGRPPRLPRPRPRPLKIPRP, the “shrunken log2 fold change” value was 0.365.

As for RRIRDRPPRLPRPRPRPAAVPRP, the “shrunken log2 fold change” value is 0.609. Consider RRIRQRPPRLPRPRPRPEQIPRP, for which the “shrunken log2 fold change” value is -0.0247. To RRIRPRPPRLPRPRPRPKILPRP belongs 0.0456; to RRIRYRPPRLPRPRPRPANQPRP, -0.131; to RRIRIRPPRLPRPRPRPERIPRP, 0.0552. To RRIRPRPPRLPRPRPRPCFDPRP belongs 0.0273; to RRIRSRPPRLPRPRPRPSYRPRP, -0.131; to RRIRSRPPRLPRPRPRPDAAPRP, 1.05. For the sequence RRIRTRPPRLPRPRPRPECHPRP, the “shrunken log2 fold change” value was -0.247.

As to RRIRLRPPRLPRPRPRPTWEPRP, the “shrunken log2 fold change” value stood at 0.0313. Turning to RRIRIRPPRLPRPRPRPYAIPRP, the “shrunken log2 fold change” value was -0.0122. For the sequence RRIRGRPPRLPRPRPRPYIWPRP, the “shrunken log2 fold change” value was -0.107. For RRIRCRPPRLPRPRPRPGISPRP, the “shrunken log2 fold change” value was -0.195.

Take RRIRIRPPRLPRPRPRPDIEPRP: the “shrunken log2 fold change” value was -0.185. For the sequence RRIRRRPPRLPRPRPRPLAHPRP, the “shrunken log2 fold change” value was determined as 0.223. With RRIRMRPPRLPRPRPRPIRKPRP, the “shrunken log2 fold change” value is 0.553. RRIRNRPPRLPRPRPRPWAIPRP: the “shrunken log2 fold change” value is -0.179.

Take RRIRCRPPRLPRPRPRPEDIPRP: the “shrunken log2 fold change” value was -0.12. On to RRIRWRPPRLPRPRPRPMSHPRP, for which the “shrunken log2 fold change” value was -0.132. For RRIRFRPPRLPRPRPRPVAEPRP, the “shrunken log2 fold change” value amounted to 0.256. RRIRVRPPRLPRPRPRPWFCPRP: the “shrunken log2 fold change” value is -0.299. Take RRIRRRPPRLPRPRPRPFSCPRP: the “shrunken log2 fold change” value was found to be 0.082. Take RRIRLRPPRLPRPRPRPPNGPRP: the “shrunken log2 fold change” value is -0.0536. To RRIRVRPPRLPRPRPRPNDTPRP belongs -0.228; to RRIRCRPPRLPRPRPRPFFQPRP, -0.152. For the sequence RRIRWRPPRLPRPRPRPGEQPRP, the “shrunken log2 fold change” value amounted to 0.0722. Turning to RRIRNRPPRLPRPRPRPRCSPRP, the “shrunken log2 fold change” value is 0.019. Consider RRIRARPPRLPRPRPRPSLAPRP, for which the “shrunken log2 fold change” value amounted to 0.54. Regarding RRIRQRPPRLPRPRPRPAEDPRP, the “shrunken log2 fold change” value was determined as 0.0312. In the case of RRIRRRPPRLPRPRPRPEHWPRP, the “shrunken log2 fold change” value turned out to be 0.315.

Regarding RRIRFRPPRLPRPRPRPTQQPRP, the “shrunken log2 fold change” value was determined as 0.312. RRIRRRPPRLPRPRPRPGKTPRP: the “shrunken log2 fold change” value worked out at 0.104. In the case of RRIRPRPPRLPRPRPRPIRKPRP, the “shrunken log2 fold change” value came to 0.0224. RRIRDRPPRLPRPRPRPVWCPRP: the “shrunken log2 fold change” value was determined as 0.162. In the case of RRIRARPPRLPRPRPRPSMKPRP, the “shrunken log2 fold change” value is -0.037.

For RRIRLRPPRLPRPRPRPDESPRP, the “shrunken log2 fold change” value came to 0.148. Regarding RRIRARPPRLPRPRPRPTPTPRP, the “shrunken log2 fold change” value is 0.968.

As for RRIRMRPPRLPRPRPRPRNQPRP, the “shrunken log2 fold change” value is 0.484.

For the sequence RRIRHRPPRLPRPRPRPRYTPRP, the “shrunken log2 fold change” value was -0.123. Regarding RRIRRRPPRLPRPRPRPGDTPRP, the “shrunken log2 fold change” value was determined as 0.0234. Take RRIRFRPPRLPRPRPRPHNLPRP: the “shrunken log2 fold change” value was -0.104. For RRIRKRPPRLPRPRPRPDLAPRP the value was 0.042; for RRIRWRPPRLPRPRPRPYGLPRP, -0.23. As for RRIRHRPPRLPRPRPRPAWCPRP, the “shrunken log2 fold change” value worked out at 0.081. With RRIRARPPRLPRPRPRPDGKPRP, the “shrunken log2 fold change” value was found to be 0.154.

Turning to RRIRPRPPRLPRPRPRPALSPRP, the “shrunken log2 fold change” value turned out to be 0.139.

For the sequence RRIRWRPPRLPRPRPRPRICPRP, the “shrunken log2 fold change” value was -0.0691. To RRIRHRPPRLPRPRPRPWRHPRP belongs -0.00865; to RRIRDRPPRLPRPRPRPSDNPRP, -0.0807; to RRIRGRPPRLPRPRPRPNNIPRP, -0.163. Consider RRIRKRPPRLPRPRPRPFHAPRP, for which the “shrunken log2 fold change” value was -0.179. To RRIRERPPRLPRPRPRPTMRPRP belongs 0.732.

In the case of RRIRCRPPRLPRPRPRPQNEPRP, the “shrunken log2 fold change” value was -0.389. For RRIRTRPPRLPRPRPRPEVKPRP, the “shrunken log2 fold change” value was 0.174. To RRIRTRPPRLPRPRPRPYAMPRP belongs -0.462; to RRIRSRPPRLPRPRPRPKAPPRP, 0.184; to RRIRYRPPRLPRPRPRPWVLPRP, -0.223. As for RRIRCRPPRLPRPRPRPKFPPRP, the “shrunken log2 fold change” value is -0.0293. RRIRMRPPRLPRPRPRPSIAPRP: the “shrunken log2 fold change” value is -0.0688.

For the sequence RRIRRRPPRLPRPRPRPTHGPRP, the “shrunken log2 fold change” value stood at 1.37. As to RRIRYRPPRLPRPRPRPSDNPRP, the “shrunken log2 fold change” value is -0.827. RRIRWRPPRLPRPRPRPFIAPRP: the “shrunken log2 fold change” value was -0.291. For RRIRKRPPRLPRPRPRPNINPRP, the “shrunken log2 fold change” value was -0.169.

As to RRIRRRPPRLPRPRPRPSFFPRP, the “shrunken log2 fold change” value came out at 0.0112. For RRIRARPPRLPRPRPRPMIRPRP, the “shrunken log2 fold change” value is -0.388. For RRIRPRPPRLPRPRPRPGCPPRP the value was 0.0239. With RRIRTRPPRLPRPRPRPCSVPRP, the “shrunken log2 fold change” value was found to be 0.0123. For the sequence RRIRGRPPRLPRPRPRPDGRPRP, the “shrunken log2 fold change” value turned out to be 0.169.

RRIRLRPPRLPRPRPRPHEDPRP: the “shrunken log2 fold change” value is -0.682.

With RRIRERPPRLPRPRPRPWMMPRP, the “shrunken log2 fold change” value is -0.139. For the sequence RRIRKRPPRLPRPRPRPIWAPRP, the “shrunken log2 fold change” value was -0.0352.

Regarding RRIRVRPPRLPRPRPRPTLRPRP, the “shrunken log2 fold change” value came to 0.102. On to RRIRVRPPRLPRPRPRPGDTPRP, for which the “shrunken log2 fold change” value was -0.0412. On to RRIRLRPPRLPRPRPRPFHVPRP, for which the “shrunken log2 fold change” value was -0.0193.

For RRIRGRPPRLPRPRPRPQKHPRP, the “shrunken log2 fold change” value turned out to be 0.982. With RRIRFRPPRLPRPRPRPQSKPRP, the “shrunken log2 fold change” value is 0.379. For RRIRWRPPRLPRPRPRPLLGPRP, the “shrunken log2 fold change” value was 0.875. Regarding RRIRWRPPRLPRPRPRPYIDPRP, the “shrunken log2 fold change” value was -0.23.

RRIRRRPPRLPRPRPRPTHRPRP: the “shrunken log2 fold change” value is 0.867.

Regarding RRIRPRPPRLPRPRPRPRDPPRP, the “shrunken log2 fold change” value worked out at 0.695. To RRIRHRPPRLPRPRPRPDIMPRP belongs -0.261. Consider RRIRIRPPRLPRPRPRPYWLPRP, for which the “shrunken log2 fold change” value was -0.413. As for RRIRYRPPRLPRPRPRPVYRPRP, the “shrunken log2 fold change” value is -0.158. To RRIRFRPPRLPRPRPRPGFMPRP belongs -0.242; to RRIRRRPPRLPRPRPRPTQMPRP, 0.694. Take RRIRMRPPRLPRPRPRPNAKPRP: the “shrunken log2 fold change” value came to 0.225. As for RRIRMRPPRLPRPRPRPYIDPRP, the “shrunken log2 fold change” value is -0.227. In the case of RRIRHRPPRLPRPRPRPKNGPRP, the “shrunken log2 fold change” value is -0.0347.

Take RRIRARPPRLPRPRPRPSGSPRP: the “shrunken log2 fold change” value came to 0.216.

Regarding RRIRDRPPRLPRPRPRPLLGPRP, the “shrunken log2 fold change” value came out at 0.356. In the case of RRIRRRPPRLPRPRPRPDTMPRP, the “shrunken log2 fold change” value is 0.0801. For RRIRIRPPRLPRPRPRPAFLPRP the value was -0.279. Turning to RRIRRRPPRLPRPRPRPPSRPRP, the “shrunken log2 fold change” value amounted to 0.446. As for RRIRFRPPRLPRPRPRPWKYPRP, the “shrunken log2 fold change” value is -0.411.

As for RRIRCRPPRLPRPRPRPLVKPRP, the “shrunken log2 fold change” value was -0.0116. For RRIRARPPRLPRPRPRPRRHPRP the value was 1.65; for RRIRNRPPRLPRPRPRPPKYPRP, -0.349; for RRIRSRPPRLPRPRPRPWMKPRP, -0.00765. As for RRIRGRPPRLPRPRPRPHLSPRP, the “shrunken log2 fold change” value was 0.283. For RRIRQRPPRLPRPRPRPLDQPRP the value was -0.635. On to RRIRHRPPRLPRPRPRPPWFPRP, for which the “shrunken log2 fold change” value was -0.27. On to RRIRTRPPRLPRPRPRPYWFPRP, for which the “shrunken log2 fold change” value was -0.535. As to RRIRRRPPRLPRPRPRPDIVPRP, the “shrunken log2 fold change” value worked out at 0.17. To RRIRARPPRLPRPRPRPASLPRP belongs 0.196. To RRIRERPPRLPRPRPRPMYFPRP belongs -0.251. Consider RRIRERPPRLPRPRPRPEYRPRP, for which the “shrunken log2 fold change” value is -0.00146.

For RRIRPRPPRLPRPRPRPCKIPRP, the “shrunken log2 fold change” value was -0.0494. Take RRIRLRPPRLPRPRPRPVLCPRP: the “shrunken log2 fold change” value was found to be 0.168. As to RRIRYRPPRLPRPRPRPLQSPRP, the “shrunken log2 fold change” value is 0.00494. Consider RRIRHRPPRLPRPRPRPFYEPRP, for which the “shrunken log2 fold change” value is -0.108. In the case of RRIRCRPPRLPRPRPRPASNPRP, the “shrunken log2 fold change” value is -0.342. For RRIRRRPPRLPRPRPRPCQPPRP, the “shrunken log2 fold change” value was -0.0346. RRIRNRPPRLPRPRPRPDYQPRP: the “shrunken log2 fold change” value is -0.165. As for RRIRQRPPRLPRPRPRPCWAPRP, the “shrunken log2 fold change” value is -0.139. Regarding RRIRHRPPRLPRPRPRPFMFPRP, the “shrunken log2 fold change” value was -0.66. In the case of RRIRARPPRLPRPRPRPQFMPRP, the “shrunken log2 fold change” value came to 0.546.
